Data set [1] addresses PARP1 Zn1-Zn3 (linked);PARP1 WGR-CAT ΔVE (Homo sapiens?;Homo sapiens?, UniProt P09874;P09874 1-366;518-1014, del97-206|del687-688). The experiment in a line: X-ray crystallography.
Data set [2] has as its target T1, PARP1 Zn1-Zn3 (linked);PARP1 WGR-HD (Homo sapiens?;Homo sapiens?, UniProt P09874;P09874 1-366;527-786, del97-206|del663-676). The data set can be described thus: fluorescence polarization. For orientation: In fluorescence polarisation assays a small probe gives low polarisation when free and higher when bound to something large.
For data set [3], the target named is PARP1 WGR-CAT (UniProt P09874 518-1014). The data set can be described thus: fluorescence polarization.
Data set [4] deals with PARP1 WGR-HD (UniProt P09874 527-786, del663-676). The data set can be described thus: fluorescence polarization.
The target of data set [5] is PARP1 Y569A (UniProt P09874 1-1014, Y569A). The data set can be described thus: fluorescence polarization.
Data set [6] has as its target T2, PARP1 G558L (UniProt P09874 1-1014, G558L). The experiment in a line: fluorescence polarization.
Data set [7] concerns the target T3, PARP1 L713F (UniProt P09874 1-1014, L713F). The experiment in a line: fluorescence polarization.
The target in data set [8] is T4, PARP1 M686G/V687P (UniProt P09874 1-1014, M686G;V687P). The data set can be described thus: fluorescence polarization.
Data set [9] concerns the target T5, PARP1 V687A/E688A (UniProt P09874 1-1014, V687A;E688A). The experiment in a line: fluorescence polarization.
The target of data set [10] is T6, PARP1 G558V (UniProt P09874 1-1014, G558V). The experiment in a line: fluorescence polarization.
For data set [11], the target named is T7, PARP1 WT (UniProt P09874 1-1014). The experiment in a line: fluorescence polarization.
The target of data set [12] is T8, PARP1 ΔART (UniProt P09874 1-786). The experiment in a line: fluorescence polarization.
Data set [13] has as its target T9, PARP1 L698A/L701A (UniProt P09874 1-1014, L698A;L701A). The experiment in a line: fluorescence polarization.
Data set [14] has as its target PARP1 Y569L (UniProt P09874 1-1014, Y569L). The experiment in a line: fluorescence polarization.
The target of data set [15] is T10, PARP1 ΔV687-E688 (ΔVE) (UniProt P09874 1-1014, del687-688). The data set can be described thus: fluorescence polarization.
The target in data set [16] is T2, PARP1 G558L. The data set can be described thus: fluorescence polarization. This is another data set of the same source.
Data set [17] has as its target PARP1 G558E (UniProt P09874 1-1014, G558E). The data set can be described thus: fluorescence polarization.
In data set [18] the target is T3, PARP1 L713F. The experiment in a line: fluorescence polarization. This is another data set of the same source.
Data set [19] concerns the target T4, PARP1 M686G/V687P. The experiment in a line: fluorescence polarization. This is another data set of the same source.
Data set [20] concerns the target T5, PARP1 V687A/E688A. The data set can be described thus: fluorescence polarization. This is another data set of the same source.
The target of data set [21] is T6, PARP1 G558V. The experiment in a line: fluorescence polarization. The source holds these as a separate data set.
Data set [22] has as its target T7, PARP1 WT. The experiment in a line: fluorescence polarization. This is another data set of the same source.
The target of data set [23] is T8, PARP1 ΔART. The experiment in a line: fluorescence polarization. This is another data set of the same source.
Data set [24] concerns the target T9, PARP1 L698A/L701A. The experiment in a line: fluorescence polarization. This is another data set of the same source.
Data set [25] deals with T10, PARP1 ΔV687-E688 (ΔVE). The data set can be described thus: fluorescence polarization. This is another data set of the same source.
Data set [26] concerns the target PARP1 Zn1;PARP1 Zn3;PARP1 WGR-HD (Homo sapiens?;Homo sapiens?;Homo …, UniProt P09874;P09874;P09874 1-96;216-366;527-786, ||del663-676). The data set can be described thus: X-ray crystallography.
The target in data set [27] is T1, PARP1 Zn1-Zn3 (linked);PARP1 WGR-HD. The data set can be described thus: X-ray crystallography.

Where two headings read alike, the source gives them in different places.

Broadly, the Kd is the constant that tells how readily two partners part at equilibrium. Low readings indicate a tighter complex, high ones a looser complex.

B1: 5-bp duplex (dsDNA)
DNA 1: CGACG
DNA 2: CGTCG
Consider B1, for which the binding result in data set [1] is recorded as “binds”.

B2: 18-bp DSB duplex (dsDNA)
DNA 1: GGGTTGCGGCCGCTTGGG
DNA 2: CCCAAGCGGCCGCAACCC
B2: the Kd is 0.007 ± 0.0024 µM in [2]; 0.0206 ± 0.0014 µM in [5]; 0.0076 ± 0.0012 µM in data set [6]; 0.0062 ± 0.0031 µM in [7]; 0.0048 ± 0.0014 µM in data set [8]; 0.0103 ± 0.0036 µM in [9]. The Kd in data set [10] is 0.0102 ± 0.0015 µM; in data set [11], 0.0084 ± 0.001 µM; in data set [12], 0.0154 ± 0.0018 µM; in data set [13], 0.0153 ± 0.0078 µM; in [14] it was 0.0408 ± 0.0021 µM; in [15], 0.008 ± 0.0019 µM. Also, the Kd in [16] stood at 0.0572 ± 0.0058 µM; in data set [17], 0.119 ± 0.0232 µM; in data set [18], 0.0213 ± 0.0035 µM; in data set [19] it was 0.0073 ± 0.0023 µM; in [20] it was 0.0712 ± 0.0107 µM; in data set [21], 0.0667 ± 0.0074 µM. Moreover, the equilibrium dissociation constant (Kd) in data set [22] was determined as 0.0597 ± 0.0092 µM; in data set [23], 0.0121 ± 0.0046 µM; in data set [24], 0.0644 ± 0.0134 µM; in data set [25], 0.0094 ± 0.0013 µM. The binding result in data set [3] and in data set [4] was “no binding” throughout.

B3: 12-bp palindromic duplex (dsDNA)
DNA 1: ATGCGGCCGCAT
DNA 2: ATGCGGCCGCAT
On to B3, for which the binding result in [26] was “binds”.

B4: 10-bp palindromic duplex (dsDNA)
DNA 1: GCCTGCAGGC
DNA 2: GCCTGCAGGC
In the case of B4, the binding result in data set [27] is given as “binds”.
